Source: patent publication US12269859B2, “Synthetic immune receptors and methods of use thereof” (Angeles Therapeutics, Inc., priority 2016, dated 2025)

Test system: target antigen-expressing cell line
Experiment: Jurkat NFAT-GFP assay, coculture with target cell lines expressing the respective target antigen (summary Table 10A)
Type: cell-based, human
Set-up: key: The signs +/−, +, 2+ etc. after the name of the cell lines indicate the relative degree of positivity on the Jurkat-NFAT-GFP assay as measured by the % GFP positive cells; +: relative degree of positivity on the Jurkat-NFAT-GFP assay as measured by the % GFP positive cells; 2+: relative degree of positivity on the Jurkat-NFAT-GFP assay as measured by the % GFP positive cells
Conditions: relative % GFP positive cells; for NFAT-GFP ASSAY Positive Cell lines: RAJI: SIR-expressing Jurkat-NFAT-GFP cells cocultured with RAJI
Outline: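 Read-out: % GFP+ cells by FACS. SIR-transduced, puromycin-selected Jurkat NFAT-GFP (IL-2 promoter reporter) cocultured ~4–18 h with target line, E:T ~1:2; parental cells as control; graded +/−, +, 2+ relative to parental.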

B1: 111215-J02 (protein)
chain: MDWIWRILFLVGAATGAHSFEVQLVESGGGSVQAGGSLRLSCTTSGRALNMYVMGWFRQAPGNEREFVAATSSSGGSTSYPDSVKGRFTISRDNAKNTVYLQMNSLKPEDTAAYRCAASPYVSTPTMNILEEYRYWGLGTQVTVSSLEGKPIPNPLLGLDSTGSGEDLKNVFPPEVAVFEPSEAEISHTQKATLVCLATGFYPDHVELSWWVNGKEVHSGVCTDPQPLKEQPALNDSRYCLSSRLRVSATFWQNPRNHFRCQVQFYGLSENDEWTQDRAKPVTQIVSAEAWGRADCGFTSESYQQGVLSATILYEILLGKATLYAVLVSALVLMAMVKRKDSRGRAKRSGSGATNFSLLKQAGDVEENPGPTSMDWIWRILFLVGAATGAHSFEVQLVESGGGLVQAGGSLRLSCAASGSIFSGNVMGWYRRQAPGKEREWVAAIASGGSIYYRDSVKGRFTISRDNAKNTVYLQMNSLKPEDTAVYYCNSHPPTLPYWGLGTQVTVSSTREQKLISEEDGSGIQNPDPAVYQLRDSKSSDKSVCLFTDFDSQTNVSQSKDSDVYITDKCVLDMRSMDFKSNSAVAWSNKSDFACANAFNNSIIPEDTFFPSPESSCDVKLVEKSFETDTNLNFQNLSVIGFRILLLKVAGFNLLMTLRLWSSRAKRSGSGVKQTLNFDLLKLAGDVESNPGPSRGHMTEYKPTVRLATRDDVPRAVRTLAAAFADYPATRHTVDPDRHIERVTELQELFLTRVGLDIGKVWVADDGAAVAVWTTPESVEAGAVFAEIGPRMAELSGSRLAAQQQMEGLLAPHRPKEPAWFLATVGVSPDHQGKGLGSAVVLPGVEAAERAGVPAFLETSAPRNLPFYERLGFTVTADVEVPEGPRTWCMTRKPGA
modifications: Synthetic Immune Receptor (SIR)
NFAT-GFP ASSAY Positive Cell lines: Bv173 (SIR-expressing Jurkat-NFAT-GFP cells cocultured with Bv173): (+) | NFAT-GFP ASSAY Positive Cell lines: MOLM13 (SIR-expressing Jurkat-NFAT-GFP cells cocultured with MOLM13): MOLM13 (+), Bv173

B2: 090116-G02 (protein)
chain: MALPVTALLLPLALLLHAARPLEGKPIPNPLLGLDSTGSGEDLKNVFPPEVAVFEPSKAEIAHTQKATLVCLATGFYPDHVELSWWVNGKEVHSGVCTDPQPLKEQPALNDSRYCLSSRLRVSATFWQNPRNHFRCQVQFYGLSENDEWTQDRAKPVTQIVSAEAWGRADCGITSASYHQGVLSATILYEILLGKATLYAVLVSALVLMAMVKRKDSRGRAKRSGSGATNFSLLKQAGDVEENPGPTSTMALPVTALLLPLALLLHAARPDIVMTQTPLTLSVTIGQPASISCKSSQSLLDSDGKTYLNWLLQRPGQSPERLIYLVSKLDSGVPDRFTGSGSGTDFTLKISRVEAEDLGVYCCWQGTHFPYTFGGGTKVEIKGGGGGSGGGGSGGGGSQVQLQQPGAELVRPGASVKLSCKASGYTFTSYWMNWVKQRPGQGLEWIGMIDPSDSETHYNHIFKDKATLTVDKSSSTAYLQLSSLTSEDSAVYYCARNLYLWGQGTSVTVSSTREQKLISEEDGSGIQNPDPAVYQLRDSKSSDKSVCLFTDFDSQTNVSQSKDSDVYITDKCVLDMRSMDFKSNSAVAWSNKSDFACANAFNNSIIPEDTFFPSSDVPCDVKLVEKSFETDTNLNFQNLSVIGFRILLLKVAGFNLLMTLRLWSSRAKRSGSGVKQTLNFDLLKLAGDVESNPGPSRGHMTEYKPTVRLATRDDVPRAVRTLAAAFADYPATRHTVDPDRHIERVTELQELFLTRVGLDIGKVWVADDGAAVAVWTTPESVEAGAVFAEIGPRMAELSGSRLAAQQQMEGLLAPHRPKEPAWFLATVGVSPDHQGKGLGSAVVLPGVEAAERAGVPAFLETSAPRNLPFYERLGFTVTADVEVPEGPRTWCMTRKPGA
modifications: Synthetic Immune Receptor (SIR)
NFAT-GFP ASSAY Positive Cell lines: RAJI: RAJI (+)

B3: 051116-C05 (protein)
chain: MALPVTALLLPLALLLHAARPDIVMTQSPDSLAVSLGERATINCRASKSVSTSGYSFMHWYQQKPGQPPKLLIYLASNLESGVPDRFSGSGSGTDFTLTISSLQAEDVAVYYCQHSREVPWTFGQGTKVEIKRLEDLKNVFPPEVAVFEPSEAEISHTQKATLVCLATGFYPDHVELSWWVNGKEVHSGVSTDPQPLKEQPALNDSRYCLSSRLRVSATFWQNPRNHFRCQVQFYGLSENDEWTQDRAKPVTQIVSAEAWGRADCGFTSESYQQGVLSATILYEILLGKATLYAVLVSALVLMAMVKRKDSRGRAKRSGSGATNFSLLKQAGDVEENPGPTSMDWIWRILFLVGAATGAHSFEQVQLVQSGAEVKKPGASVKVSCKASGYTFTNYGMNWVRQAPGQGLEWMGWINTYTGEPTYADAFKGRFAFSLDTSTSTAYLQINSLRSDDTAVYYCARDYGDYGMDYWGQGTTVTVSSTRIQNPDPAVYQLRDSKSSDKSVCLFTDFDSQTNVSQSKDSDVYITDKTVLDMRSMDFKSNSAVAWSNKSDFACANAFNNSIIPEDTFFPSPESSCDVKLVEKSFETDTNLNFQNLSVIGFRILLLKVAGFNLLMTLRLWSSRAKRSGSGVKQTLNFDLLKLAGDVESNPGPSRGHMTEYKPTVRLATRDDVPRAVRTLAAAFADYPATRHTVDPDRHIERVTELQELFLTRVGLDIGKVWVADDGAAVAVWTTPESVEAGAVFAEIGPRMAELSGSRLAAQQQMEGLLAPHRPKEPAWFLATVGVSPDHQGKGLGSAVVLPGVEAAERAGVPAFLETSAPRNLPFYERLGFTVTADVEVPEGPRTWCMTRKPGA
modifications: Synthetic Immune Receptor (SIR)
NFAT-GFP ASSAY Positive Cell lines: THP1 (SIR-expressing Jurkat-NFAT-GFP cells cocultured with THP1): THP1 (+/−)

B4: 060717-T02 (protein)
chain: MALPVTALLLPLALLLHAARPDIQMTQSPSSLSASVGDRVTINCKASQDINSYLSWFQQKPGKAPKTLIYRANRLVDGVPSRFSGSGSGQDYTLTISSLQPEDFATYYCLQYDEFPLTFGGGTKVEIKLEIQNPDPAVYQLRDSKSSDKSVCLFTDFDSQTNVSQSKDSDVYITDKCVLDMRSMDFKSNSAVAWSNKSDFACANAFNNSIIPEDTFFPSSDVPCDVKLVEKSFETDTNLNFQNLSVIGFRILLLKVAGFNLLMTLRLWSSRAKRSGSGVKQTLNFDLLKLAGDVESNPGPTSMDWIWRILFLVGAATGAHSFEQVQLVQSGAEVKKPGASVKVSCKASGYTFTNYDINWVRQAPGQGLEWIGWIYPGDGSTKYNEKFKAKATLTADTSTSTAYMELRSLRSDDTAVYYCASGYEDAMDYWGQGTTVTVSSTREDLKNVFPPEVAVFEPSKAEIAHTQKATLVCLATGFYPDHVELSWWVNGKEVHSGVCTDPQPLKEQPALNDSRYCLSSRLRVSATFWQNPRNHFRCQVQFYGLSENDEWTQDRAKPVTQIVSAEAWGRADCGITSASYHQGVLSATILYEILLGKATLYAVLVSALVLMAMVKRKDSRGRAKRSGSGATNFSLLKQAGDVEENPGPSRGHMTEYKPTVRLATRDDVPRAVRTLAAAFADYPATRHTVDPDRHIERVTELQELFLTRVGLDIGKVWVADDGAAVAVWTTPESVEAGAVFAEIGPRMAELSGSRLAAQQQMEGLLAPHRPKEPAWFLATVGVSPDHQGKGLGSAVVLPGVEAAERAGVPAFLETSAPRNLPFYERLGFTVTADVEVPEGPRTWCMTRKPGA
NFAT-GFP ASSAY Positive Cell lines: HL60 (SIR-expressing Jurkat-NFAT-GFP cells cocultured with HL60): HL60 (2+)

B5: 110116-G04 (protein)
chain: MALPVTALLLPLALLLHAARPLEQKLISEEDLGSGDRPDPAVYQLRDSKSSDKSVCLFTDFDSQTNVSQSKDSDVYITDKCVLDMRSMDFKSNSAVAWSNKSDFACANAFNNSIIPEDTFFPSPESSCDVKLVEKSFETDTNLNFQNLSVIGFRILLLKVAGFNLLMTLRLWSSSSRAKRSGSGVKQTLNFDLLKLAGDVESNPGPTSTMALPVTALLLPLALLLHAARPDIVMTQTPLTLSVTIGQPASISCKSSQSLLDSDGKTYLNWLLQRPGQSPERLIYLVSKLDSGVPDRFTGSGSGTDFTLKISRVEAEDLGVYCCWQGTHFPYTFGGGTKVEIKGGGGGSGGGGSGGGGSQVQLQQPGAELVRPGASVKLSCKASGYTFTSYWMNWVKQRPGQGLEWIGMIDPSDSETHYNHIFKDKATLTVDKSSSTAYLQLSSLTSEDSAVYYCARNLYLWGQGTSVTVSSTRGKPIPNPLLGLDSTGSGEDLKNVFPPEVAVFEPSEAEISHTQKATLVCLATGFYPDHVELSWWVNGKEVHSGVCTDPQPLKEQPALNDSRYCLSSRLRVSATFWQNPRNHFRCQVQFYGLSENDEWTQDRAKPVTQIVSAEAWGRADCGFTSESYQQGVLSATILYEILLGKATLYAVLVSALVLMAMVKRKDSRGRAKRSGSGATNFSLLKQAGDVEENPGPSRGHMTEYKPTVRLATRDDVPRAVRTLAAAFADYPATRHTVDPDRHIERVTELQELFLTRVGLDIGKVWVADDGAAVAVWTTPESVEAGAVFAEIGPRMAELSGSRLAAQQQMEGLLAPHRPKEPAWFLATVGVSPDHQGKGLGSAVVLPGVEAAERAGVPAFLETSAPRNLPFYERLGFTVTADVEVPEGPRTWCMTRKPGA
modifications: Synthetic Immune Receptor (SIR)
NFAT-GFP ASSAY Positive Cell lines: RAJI: RAJI (+/−)

B6: 031517-S02 (protein)
chain: MALPVTALLLPLALLLHAARPLEGKPIPNPLLGLDSTGSGEDLKNVFPPEVAVFEPSKAEIAHTQKATLVCLATGFYPDHVELSWWVNGKEVHSGVCTDPQPLKEQPALNDSRYCLSSRLRVSATFWQNPRNHFRCQVQFYGLSENDEWTQDRAKPVTQIVSAEAWGRADCGITSASYHQGVLSATILYEILLGKATLYAVLVSALVLMAMVKRKDSRGRAKRSGSGATNFSLLKQAGDVEENPGPTSMALPVTALLLPLALLLHAARPDIVLTQSPASLAVSLGERATINCRASESVSVIGAHLIHWYQQKPGQPPKLLIYLASNLETGVPARFSGSGSGTDFTLTISSLQAEDAAIYYCLQSRIFPRTFGQGTKLEIKGGGGSGGGGSGGGGSQVQLVQSGSELKKPGESVKISCKASGYTFTDYSINWVKQAPGQGLKWMGWINTETREPAYAYDFRGRFVFSLDTSASTAYLQISSLKAEDTAVYFCALDYSYAMDYWGQGTLVTVSSTREQKLISEEDGSGIQNPDPAVYQLRDSKSSDKSVCLFTDFDSQTNVSQSKDSDVYITDKCVLDMRSMDFKSNSAVAWSNKSDFACANAFNNSIIPEDTFFPSSDVPCDVKLVEKSFETDTNLNFQNLSVIGFRILLLKVAGFNLLMTLRLWSSRAKRSGSGVKQTLNFDLLKLAGDVESNPGPSRGHMTEYKPTVRLATRDDVPRAVRTLAAAFADYPATRHTVDPDRHIERVTELQELFLTRVGLDIGKVWVADDGAAVAVWTTPESVEAGAVFAEIGPRMAELSGSRLAAQQQMEGLLAPHRPKEPAWFLATVGVSPDHQGKGLGSAVVLPGVEAAERAGVPAFLETSAPRNLPFYERLGFTVTADVEVPEGPRTWCMTRKPGA
NFAT-GFP ASSAY Positive Cell lines: L363 (SIR-expressing Jurkat-NFAT-GFP cells cocultured with L363): L363 (+/−), U266 | NFAT-GFP ASSAY Positive Cell lines: U266 (SIR-expressing Jurkat-NFAT-GFP cells cocultured with U266): (+/−)
